The target of this test is Human IL-21 receptor on Baf3/KZ134/huIL-21R cells (human) (UniProt Q9HBE5). As to the kind of experiment: cell-based or functional assay.

Our source for the EC90 in STAT-Luciferase assay values is US20120225065A1.

Chain of Human IL-21 receptor on Baf3/KZ134/huIL-21R cells (human) (Q9HBE5 20-538): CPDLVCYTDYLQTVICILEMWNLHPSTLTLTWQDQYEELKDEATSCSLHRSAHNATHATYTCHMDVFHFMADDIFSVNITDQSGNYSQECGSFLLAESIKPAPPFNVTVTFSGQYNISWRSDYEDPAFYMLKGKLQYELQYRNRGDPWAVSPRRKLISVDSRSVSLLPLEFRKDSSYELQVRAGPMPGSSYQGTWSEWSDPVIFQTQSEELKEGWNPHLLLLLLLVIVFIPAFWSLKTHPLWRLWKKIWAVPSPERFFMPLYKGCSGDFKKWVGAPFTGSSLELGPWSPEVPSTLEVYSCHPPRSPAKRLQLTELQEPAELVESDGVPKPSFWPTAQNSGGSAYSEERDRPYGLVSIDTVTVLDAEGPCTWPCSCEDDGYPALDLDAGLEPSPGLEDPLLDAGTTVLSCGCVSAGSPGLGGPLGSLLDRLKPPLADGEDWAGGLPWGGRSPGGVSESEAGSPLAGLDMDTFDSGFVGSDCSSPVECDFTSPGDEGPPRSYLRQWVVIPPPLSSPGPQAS

The substance “Recombinant rat IL-21 (from UniProt A3QPB9 18-146) (ligand)” registered an EC90 in STAT-Luciferase assay of 1.08 nM.
